The values below come from patent US6861578B1, “Method for plant protection against insects or nematodes by transformation with a nucleic acid encoding equistatin” (Plant Research International B.V., priority 1997, dated 2005).

Data set [1] concerns Colorado potato beetle larval gut extracts (potato protease inhibitor-insensitive cysteine proteases). In words: General proteolytic activity of Colorado potato beetle larval gut extracts, azocasein. The class given is biochemical, Leptinotarsa decemlineata. The text has this: (§1) Guts of final instar Colorado potato beetle larvae reared on methyl jasmonate induced plants were isolated and extracted essentially as described (Bolter and Jongsma, J. Insect Physiol. 41: 1071-1078). In these gut extracts the proteases that are sensitive to the protease inhibitors of potato are already complexed. The residual protease activity is composed of potato protease-inhibitor-insensitive proteases which were induced in response to the methyl jasmonate induced potato inhibitors. These proteases are the proteases that render the beetle larvae insensitive to protease inhibitor defense of the potato plant. Wle tested a broad range of different cysteisie protease inhibitors for activity specifically against these induced potato protease inhibitor-insensitive cysteine protesses. Nearly all of these inhibitors were purified at the Jozef Stefan Institute in Slovenia. Testing their potential against Colorado potato beetle was done using both general protein substrates (azocasein, table 2) as well as specific synthetic substrates (L-Arg-pNA, table 3; pGlu-Phe-Leu-pNA, table 4; Z-Phe-Arg-pNA, table 5; Z-Arg-Arg-pNA, table 6). In specific cases inhibitors were tested at two concentrations, eauimolar and in excess to the protease, in order to obtain an indication of the tightness of the complex. […] Importantly, this class of inhibitors was capable of inhibiting nearly all general cysteine protease activity. The equistatin peptide molecule and a functional derivative thereof were not very active against the aminopeptidase-like cysteine protease activity. […] The best combination of inhibitors for full toxicity against the Colorado potato beetle would therefore be a combination of equistatin or p41 invariant chain fragment and stefin-like inhibitors.

Another data set concerns trypsin. The data set can be described thus: Screen of equistatin against serine proteinase trypsin; limited proteolysis. The following applies: screened against cathepsin D and trypsin. The class given is biochemical. Here is the method:
Equistatin was isolated from sea anemone A. equina by a procedure that was described previously utilizing its inhibitory activity toward cysteine proteinase, papain (Lenarcic et al. (1997) J. Biol. Chem. 272: 13899). Besides cysteine proteinases, equistatin was screened for the inhibition of two other classes of proteinases, aspartic proteinases (cathepsin D) and serine proteinase (trypsin). […] 500 μg equistatin was incubated with 5 μg of β-trypsin in 0.5 ml of 0.1 M Tris/HCl buffer pH 8.0, for 40 min at 37° C. Reaction was stopped by the addition of trifluoroacetic acid. The 9-trypsin digest of equistatin was separated by high performance liquid chromatography (Milton Roy Co.) using a reverse phase Vydac C18 column equilibrated with 5% acetonicril containing 0.1% (v/v) trifluoroacetic acid. Elution was performed using a linear gradient of 80% (v/v) acetonitrile containing 0.1% (v/v) trifluoroacetic acid. Absorbance was monitored at 215 nm. Two major peaks were obtained on the reverse-phase. HPLC (FIG. 9B). The molecular weights, estimated by the SDS PAGE under non-reducing conditions, were about 7,000 and 14,000 (FIG. 10). Determination of the N-termini of the both fragments allowed them to be located in the sequence of the equistatin molecule shown schematically in FIG. 11. […]

Data set [2] relates to endoprotease activity of Colorado potato beetle larval gut extracts. The data set can be described thus: Broad spectrum endoprotease activity of Colorado potato beetle gut extract, Z-Phe-Arg-pNA. The class given is biochemical, Leptinotarsa decemlineata.
Excerpt: as §1

B1: equistatin: cysteine/aspartic protease inhibitor from sea anemone Actinia equina with three type I repeated thyroglobulin domains; purified or recombinant from E. coli (protein)
chain: SLTKCQQLQASANSGLIGTYVPQCKETGEFEEKQCWGSTGYCWCVDEDGKEILGTKIRGSPDCSRRKAALTLCQMMQAIIVNVPGWCGPPSCKADGSFDEVQCCASNGECYCVDKKGKELEGTRQQGRPTCERHLSECEEARIKAHSNSLRVEMFVPECLEDGSYNPVQCWPSTGYCWCVDEGGVKVPGSDVRFKRPTC
modifications: left off: large carriers; small tags and cut ends
notes: purified or recombinant from E. coli
For B1, the “Residual activity in excess of inhibitor” value in data set [1] was 10%. Further, the “inhibitory effect on trypsin (screen)” value with trypsin is “observed only when it was reacting with cathepsin D”. The “% of residual activity, equimolar” value in data set [2] (equimolar) is 30%. In data set [2] (excess inhibitor), the “% of residual activity, excess inhibitor” value is listed as 20%.
